The values below come from patent publication US7018836.

One series deals with GST-Tat 1 86R (UniProt P04608).
In series [1] the target is human P-TEFb from HeLa extract, detected through its kinase subunit PITALRE (human). The series is described as follows: cell-based or functional assay.
Sequence of human P-TEFb from HeLa extract, detected through its kinase subunit PITALRE (human) (P50750 whole entry): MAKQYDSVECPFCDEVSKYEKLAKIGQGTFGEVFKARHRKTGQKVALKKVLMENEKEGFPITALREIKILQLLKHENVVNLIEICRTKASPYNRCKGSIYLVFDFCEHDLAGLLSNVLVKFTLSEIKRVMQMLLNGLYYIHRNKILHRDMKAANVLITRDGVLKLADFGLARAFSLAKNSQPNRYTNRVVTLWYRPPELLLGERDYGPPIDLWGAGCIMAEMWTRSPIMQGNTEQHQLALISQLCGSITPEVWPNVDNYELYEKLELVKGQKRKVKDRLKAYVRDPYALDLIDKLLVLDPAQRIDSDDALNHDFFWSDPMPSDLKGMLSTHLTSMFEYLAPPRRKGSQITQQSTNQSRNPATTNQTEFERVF

Sequence of GST-Tat 1 48Δ (P08515 1-218, tags or fused parts left off): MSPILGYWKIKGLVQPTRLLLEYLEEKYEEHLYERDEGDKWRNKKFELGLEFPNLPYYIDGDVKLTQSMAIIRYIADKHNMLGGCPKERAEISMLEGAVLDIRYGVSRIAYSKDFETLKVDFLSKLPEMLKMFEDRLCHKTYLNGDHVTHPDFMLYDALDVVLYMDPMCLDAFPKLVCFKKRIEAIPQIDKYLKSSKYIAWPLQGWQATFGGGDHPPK

“human P-TEFb from HeLa extract, detected through its kinase subunit PITALRE”: the “phosphorylation of the CTD of RNA polymerase II” value with GST-Tat 1 86R was “The GST-Tat 1 86R/P-TEFb protein complex can phosphorylate the CTD of RNA polymerase II”.

“GST-Tat 1 48Δ (from UniProt P08515 1-218; P04608 1-48)”: the TAK activity (assayed by GST-Tat48A pull-down) after depletion of human P-TEFb from HNE by antibodies to PITALRE in series [1] is below 2%. In turn, “86 residue HIV-1 Tat followed by a streptavidin binding tag at its carboxyl terminus (from UniProt P04608 1-86)” gave a runoff transcription from the HIV-1 LTR TAR template in HNE, continuous labeling in series [1] of 12 fold.
